For this assay, the target named is T1, human NPY2 receptor (human, UniProt P49146 1-381).
T1 construct: whole, on cells; also called hNPY2-R; hNPY2R
T1 sequence (looked up): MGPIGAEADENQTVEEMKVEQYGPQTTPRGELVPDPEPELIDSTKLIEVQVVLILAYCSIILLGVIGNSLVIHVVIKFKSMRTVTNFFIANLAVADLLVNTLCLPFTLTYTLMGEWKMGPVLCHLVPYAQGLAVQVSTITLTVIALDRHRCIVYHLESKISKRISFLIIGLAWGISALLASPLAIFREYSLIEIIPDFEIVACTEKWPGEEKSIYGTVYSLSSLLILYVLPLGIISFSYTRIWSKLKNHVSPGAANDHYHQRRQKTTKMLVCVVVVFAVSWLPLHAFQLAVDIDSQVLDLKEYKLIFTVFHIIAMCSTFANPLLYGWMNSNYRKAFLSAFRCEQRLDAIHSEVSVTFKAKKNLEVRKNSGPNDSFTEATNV
Kind of assay: RLB: displacement of 125I-PYY(1-36) from hNPY2R membranes. For orientation: Displacement assays read how much labelled ligand stays bound in the presence of the test substance.

*1 amine or outer side, *2 acyl side, *3 side chain or, on linkers, in order; H or OH if unused. Side-chain parts run from the residue outwards. The star is where a group is joined. C18 diacid = O=C(O)CCCCCCCCCCCCCCCCC(=O)*; γGlu = O=C(O)[C@H](CCC(=O)[*:2])N[*:1]; Isovaleryl = CC(C)CC(=O)*; Ahx = NCCCCCC(=O)O

B1: Compound 169 (peptide)
peptide: Isovaleryl-APEK([Ahx-γGlu-C18 diacid])PEEDAEPEELQAYYVSLRHYYNWLTRQRY-NH2
SMILES: CC(C)CC(=O)N[C@@H](C)C(=O)N1CCC[C@H]1C(=O)N[C@@H](CCC(=O)O)C(=O)N[C@@H](CCCCNC(=O)CCCCCNC(=O)CC[C@H](NC(=O)CCCCCCCCCCCCCCCCC(=O)O)C(=O)O)C(=O)N1CCC[C@H]1C(=O)N[C@@H](CCC(=O)O)C(=O)N[C@@H](CCC(=O)O)C(=O)N[C@@H](CC(=O)O)C(=O)N[C@@H](C)C(=O)N[C@@H](CCC(=O)O)C(=O)N1CCC[C@H]1C(=O)N[C@@H](CCC(=O)O)C(=O)N[C@@H](CCC(=O)O)C(=O)N[C@@H](CC(C)C)C(=O)N[C@@H](CCC(N)=O)C(=O)N[C@@H](C)C(=O)N[C@@H](Cc1ccc(O)cc1)C(=O)N[C@@H](Cc1ccc(O)cc1)C(=O)N[C@H](C(=O)N[C@@H](CO)C(=O)N[C@@H](CC(C)C)C(=O)N[C@@H](CCCNC(=N)N)C(=O)N[C@@H](Cc1c[nH]cn1)C(=O)N[C@@H](Cc1ccc(O)cc1)C(=O)N[C@@H](Cc1ccc(O)cc1)C(=O)N[C@@H](CC(N)=O)C(=O)N[C@@H](Cc1c[nH]c2ccccc12)C(=O)N[C@@H](CC(C)C)C(=O)N[C@H](C(=O)N[C@@H](CCCNC(=N)N)C(=O)N[C@@H](CCC(N)=O)C(=O)N[C@@H](CCCNC(=N)N)C(=O)N[C@@H](Cc1ccc(O)cc1)C(N)=O)[C@@H](C)O)C(C)C
Turning to B1, the Ki turned out to be 5.82 nM.

B2: Compound 170 (peptide)
peptide: Isovaleryl-APEK([Ahx-γGlu-C18 diacid])PEEDAAPEEIQRYYVSLRHYYNWLTRQRY-NH2
SMILES: CC[C@H](C)[C@H](NC(=O)[C@H](CCC(=O)O)NC(=O)[C@H](CCC(=O)O)NC(=O)[C@@H]1CCCN1C(=O)[C@H](C)NC(=O)[C@H](C)NC(=O)[C@H](CC(=O)O)NC(=O)[C@H](CCC(=O)O)NC(=O)[C@H](CCC(=O)O)NC(=O)[C@@H]1CCCN1C(=O)[C@H](CCCCNC(=O)CCCCCNC(=O)CC[C@H](NC(=O)CCCCCCCCCCCCCCCCC(=O)O)C(=O)O)NC(=O)[C@H](CCC(=O)O)NC(=O)[C@@H]1CCCN1C(=O)[C@H](C)NC(=O)CC(C)C)C(=O)N[C@@H](CCC(N)=O)C(=O)N[C@@H](CCCNC(=N)N)C(=O)N[C@@H](Cc1ccc(O)cc1)C(=O)N[C@@H](Cc1ccc(O)cc1)C(=O)N[C@H](C(=O)N[C@@H](CO)C(=O)N[C@@H](CC(C)C)C(=O)N[C@@H](CCCNC(=N)N)C(=O)N[C@@H](Cc1c[nH]cn1)C(=O)N[C@@H](Cc1ccc(O)cc1)C(=O)N[C@@H](Cc1ccc(O)cc1)C(=O)N[C@@H](CC(N)=O)C(=O)N[C@@H](Cc1c[nH]c2ccccc12)C(=O)N[C@@H](CC(C)C)C(=O)N[C@H](C(=O)N[C@@H](CCCNC(=N)N)C(=O)N[C@@H](CCC(N)=O)C(=O)N[C@@H](CCCNC(=N)N)C(=O)N[C@@H](Cc1ccc(O)cc1)C(N)=O)[C@@H](C)O)C(C)C
B2 showed a Ki of 2.28 nM.

As usually defined, the Ki is a measure of affinity in units of concentration, obtained from inhibition or displacement. The low end stands for a stronger hold on the target, the high end for a looser hold on the target.
